Measurements reported in US20040058368A1 (PENN STATE RESEARCH FOUNDATION, published 2004).

B3: Gal80p (other, Saccharomyces cerevisiae (yeast), UniProt P04387 1-435, looked up)
chain: MDYNKRSSVSTVPNAAPIRVGFVGLNAAKGWAIKTHYPAILQLSSQFQITALYSPKIETSIATIQRLKLSNATAFPTLESFASSSTIDMIVIAIQVASHYEVVMPLLEFSKNNPNLKYLFVEWALACSLDQAESIYKAAAERGVQTIISLQGRKSPYILRAKELISQGYIGDINSIEIAGNGGWYGYERPVKSPKYIYEIGNGVDLVTTTFGHTIDILQYMTSSYFSRINAMVFNNIPEQELIDERGNRLGQRVPKTVPDHLLFQGTLLNGNVPVSCSFKGGKPTKKFTKNLVIDIHGTKGDLKLEGDAGFAEISNLVLYYSGTRANDFPLANGQQAPLDPGYDAGKEIMEVYHLRNYNAIVGNIHRLYQSISDFHFNTKKIPELPSQFVMQGFDFEGFPTLMDALILHRLIESVYKSNMMGSTLNVSNISHYSL
notes: Endogenous yeast protein, inside the cells; also called Gal80 protein

What was measured:
Gal80-TBP = biological target: T1, Gal80-TBP (Saccharomyces cerevisiae (yeast), UniProt P04387 1-435; P13393 1-240, limits assumed); test: 80-Trap HIS3 reporter growth assay in yeast
T1 construct: The junction and any tags are not described
T1 sequence (looked up): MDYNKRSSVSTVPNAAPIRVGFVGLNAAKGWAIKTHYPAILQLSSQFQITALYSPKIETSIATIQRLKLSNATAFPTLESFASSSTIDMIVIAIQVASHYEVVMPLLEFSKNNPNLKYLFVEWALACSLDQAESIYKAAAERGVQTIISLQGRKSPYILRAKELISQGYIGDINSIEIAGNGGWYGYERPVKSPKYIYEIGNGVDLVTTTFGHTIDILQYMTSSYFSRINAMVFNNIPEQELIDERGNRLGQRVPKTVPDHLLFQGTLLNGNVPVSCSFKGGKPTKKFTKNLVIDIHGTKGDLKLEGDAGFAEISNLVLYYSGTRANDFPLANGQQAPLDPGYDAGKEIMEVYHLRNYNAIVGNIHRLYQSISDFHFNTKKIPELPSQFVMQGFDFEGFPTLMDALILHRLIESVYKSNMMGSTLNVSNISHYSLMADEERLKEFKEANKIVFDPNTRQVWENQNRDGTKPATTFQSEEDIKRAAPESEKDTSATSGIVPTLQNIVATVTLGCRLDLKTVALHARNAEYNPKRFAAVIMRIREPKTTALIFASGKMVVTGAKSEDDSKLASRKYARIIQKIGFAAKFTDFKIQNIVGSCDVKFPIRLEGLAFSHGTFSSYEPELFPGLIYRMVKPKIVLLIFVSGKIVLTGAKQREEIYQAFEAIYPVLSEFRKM
From the text: FIG. 5. (Yeast cells) A membrane-targeted transcription factor activates GAL gene expression through interaction with Gal80-TBP. Galactose-independent HIS3 reporter (expression as a result of Gal80-TBP and Myr-TAF145 interaction; lane 1). Lane 2 illustrates the positive control: interaction between two proteins known to interact: Fpr1 (in fusion with Gal80) and Hom3 (fused to the Myr sequence and CFP). Lane 3 is the negative control with Gal80-TBP tested against just the Myr sequence. The nutrient agar plate used here contained 3% glycerol/2% lactic acid as carbon source and lacked histidine, tryptophan and uracil.

Gal80p = biological target: B3; test: UASGAL-HIS3 reporter growth assay in yeast without galactose
From the text: FIG. 6. (Yeast cells) Membrane targeted transcriptional activation domain of Gal4p (Gal4AD; amino acid 758-881) activates HIS3 reporter gene expression. A yeast strain harboring a UASGAL-HIS3 reporter was transformed with Myr-Gal4AD. […] Transformed cells were spotted on synthetic medium plates lacking histidine, tryptophan and uracil and containing 3% glycerol/2% lactic acid as carbon source.

wild type Gal3p = biological target: T2, wild type Gal3p (Saccharomyces cerevisiae (yeast), UniProt P13045 1-520); test: cell-based or functional assay
T2 sequence (looked up): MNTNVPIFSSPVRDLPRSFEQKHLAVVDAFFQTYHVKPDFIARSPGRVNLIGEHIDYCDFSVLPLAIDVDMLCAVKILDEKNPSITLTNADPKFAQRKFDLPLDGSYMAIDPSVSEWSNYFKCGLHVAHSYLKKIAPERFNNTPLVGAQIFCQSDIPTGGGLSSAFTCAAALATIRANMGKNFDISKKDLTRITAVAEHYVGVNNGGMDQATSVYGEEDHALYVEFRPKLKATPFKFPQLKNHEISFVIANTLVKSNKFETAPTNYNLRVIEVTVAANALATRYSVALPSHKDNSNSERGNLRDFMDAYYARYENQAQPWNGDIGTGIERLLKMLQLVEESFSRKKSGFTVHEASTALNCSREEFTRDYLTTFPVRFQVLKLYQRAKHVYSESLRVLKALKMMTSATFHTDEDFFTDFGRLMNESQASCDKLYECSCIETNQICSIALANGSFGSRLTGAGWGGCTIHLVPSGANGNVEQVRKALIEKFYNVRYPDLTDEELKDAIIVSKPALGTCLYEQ

Gal4p = biological target: T3, Gal4p (Saccharomyces cerevisiae (yeast), UniProt P04386 1-881); test: formaldehyde cross-linking and chromatin immunoprecipitation in yeast, un-induced against galactose-induced
T3 construct: Endogenous protein of wild type Sc723 cells, cross-linked in vivo
Description: Fold enrichments are indicated (enrichment). […] FIG. 3C illustrates quantitation of promoter occupancy by Gal4p, Gal80p and Gal3p in un-induced and induced cells. Values are means (±standard deviation) of at least five experiments carried out with two sets of independently prepared chromatin samples.
Chromatin immunoprecipitations were performed as described by Braunstein et al., 1993, Genes Dev. 7: 592-604 and Kuras et al. 1999, Nature 399: 609-613. Briefly, wild type Sc723 cells (Blank et al., 1997, Mol. Cell. Biol. 17: 2566-2575) were grown to early exponential growth phase (as measured by absorbance at 600 nm˜0.4) in 250 mL yeast extract-peptone medium containing 2% glycerol, 3% lactic acid, and 0.05% glucose (-galactose, un-induced). For galactose-induced cultures, galactose was added to the un-induced cultures to a final concentration of 2% and the cultures were incubated for an additional 20 minutes. Formaldehyde was added to a final concentration of 1%, the cultures were incubated for 20 minutes at room temperature, and glycine was added to a final concentration of 300 mM. All the following steps were carried out at […]. Cells were washed twice with TBS (20 mM Tris-HCl, 150 mM NaCl, pH 8.0), resuspended in 1 mL lysis buffer (50 mM Tris-HCl pH 8.0, 10 mM EDTA, 1% SDS, 1 mM PMSF), and disrupted by vortexing with glass beads. […]

B1: Myr sequence (peptide)
peptide: MGCTVSTQTIGDESDP
modifications: N-myristoylation signal
B1: no binding (Gal80-TBP).

B2: Membrane targeted transcriptional activation domain of Gal4p (Myr-Gal4AD) (other, Saccharomyces cerevisiae (yeast))
chain: MGCTVSTQTIGDESDPPLTPSALFGGANFNQSGNIADSSLSFTFTNSSNGPNLITTQTNSQALSQPIASSNVHDNFMNNEITASKIDDGNNSKPLSPGWTDQTAYNAFGITTGMFNTTTMDDVYNYLFDDEDTPPNPKKE
modifications: N-myristoylation signal at the N terminus
notes: range 758-881; also called membrane-localized Gal4AD
B2: binds (Gal80p).

With B3 the “MEL1 gene expression level” value (wild type Gal3p) was 2 fold reduction and the binding result (Gal4p) was “binds”.
